One experiment concerns the target T1, human GLP-1 receptor (human, UniProt P43220 24-463).
T1 construct: whole, on cells; Assayed as crude membranes of stably transfected HEK293 cells; also called hGLP1R; hGLP-1R
Kind of experiment: SPA, displacement of [125I]-GLP-1 from hGLP-1R membranes, 0.1% bacitracin. In a few lines: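 Binding buffer: 25 mM HEPES pH 7.4, 2.5 mM CaCl₂, 1 mM MgCl₂, 0.1% bacitracin, 0.003% Tween-20, protease inhibitors without EDTA. Four-parameter nonlinear regression; Kᵢ given as geometric mean ± SEM, n = independent replicates run on different days.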
On the technique in general: Displacement assays read how much labelled ligand stays bound in the presence of the test substance.

The target of another experiment is T2, human glucagon receptor (human, UniProt P47871 26-477).
T2 construct: whole, on cells; Assayed as crude membranes of stably transfected HEK293 cells; also called hGcgR; GcgR
T2 sequence (P47871 26-477): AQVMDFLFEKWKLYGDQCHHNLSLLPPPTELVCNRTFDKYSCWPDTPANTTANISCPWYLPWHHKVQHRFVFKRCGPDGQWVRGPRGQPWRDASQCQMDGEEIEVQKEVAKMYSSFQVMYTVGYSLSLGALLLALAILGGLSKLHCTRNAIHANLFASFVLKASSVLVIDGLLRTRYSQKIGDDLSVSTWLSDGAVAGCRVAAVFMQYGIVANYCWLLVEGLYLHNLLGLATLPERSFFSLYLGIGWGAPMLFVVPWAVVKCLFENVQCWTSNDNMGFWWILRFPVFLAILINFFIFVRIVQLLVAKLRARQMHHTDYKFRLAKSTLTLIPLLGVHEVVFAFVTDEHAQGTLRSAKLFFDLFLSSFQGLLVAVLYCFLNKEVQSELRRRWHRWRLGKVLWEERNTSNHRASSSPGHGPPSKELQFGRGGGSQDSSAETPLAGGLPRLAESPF
Briefly: SPA, displacement of [125I]-Gcg from hGcgR membranes, 0.1% bacitracin. In a few lines:
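Binding buffer: 25 mM HEPES pH 7.4, 2.5 mM CaCl₂, 1 mM MgCl₂, 0.003% Tween-20, protease inhibitors without EDTA. Counted by scintillation after 12 h incubation/settling at room temperature. Four-parameter nonlinear fit; Kᵢ given as geometric mean ± SEM of independent replicates run on different days.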

In experiment [1] the target is T3, human glucose-dependent insulinotropic polypeptide (GIP) receptor (human, UniProt P48546 22-466).
T3 construct: whole, on cells; Assayed as crude membranes of stably transfected CHO cells; also called hGIPR; human GIP receptor
T3 sequence (looked up): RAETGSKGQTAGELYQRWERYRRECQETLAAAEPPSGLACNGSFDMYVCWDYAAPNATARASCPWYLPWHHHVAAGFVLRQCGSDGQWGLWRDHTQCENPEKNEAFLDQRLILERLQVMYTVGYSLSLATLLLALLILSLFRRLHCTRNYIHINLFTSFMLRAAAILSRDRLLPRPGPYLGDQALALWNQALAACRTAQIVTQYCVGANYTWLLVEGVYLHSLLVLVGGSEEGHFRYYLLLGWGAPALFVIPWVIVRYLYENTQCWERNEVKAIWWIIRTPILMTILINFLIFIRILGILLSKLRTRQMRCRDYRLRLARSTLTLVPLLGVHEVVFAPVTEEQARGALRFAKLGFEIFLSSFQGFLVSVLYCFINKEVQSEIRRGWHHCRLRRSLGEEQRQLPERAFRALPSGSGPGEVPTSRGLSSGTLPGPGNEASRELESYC
Briefly: SPA, displacement of [125I]-GIP from hGIPR membranes, 0.1% bacitracin.

Starred links: 1 amine or outer side, 2 acyl side, 3 side chain; linkers in the order of their positions; H or OH if unused. Non-standard residues stand in square brackets, D forms with d. Groups on a side chain read outwards from the residue. No end group written: not given here. *: point of attachment. C20 diacid = O=C(O)CCCCCCCCCCCCCCCCCCC(=O)*; αMePhe(2-F) = C[C@](N)(Cc1ccccc1F)C(=O)O; γGlu = O=C(O)[C@H](CCC(=O)[*:2])N[*:1]; 4Pal = N[C@@H](Cc1ccncc1)C(=O)O; αMeL = CC(C)C[C@](C)(N)C(=O)O; AEEA = NCCOCCOCC(=O)O; Aib = CC(C)(N)C(=O)O

B1: Example 69 (peptide)
peptide: Y[Aib]EGTFISDYSI[αMeL]LDKK([AEEA-AEEA-γGlu-C20 diacid])HQ[Aib]DFVEYLLEGGPSSGAPPPS-NH2
modifications: N-terminus assumed
SMILES: CC[C@H](C)[C@H](NC(=O)[C@H](Cc1ccccc1)NC(=O)[C@@H](NC(=O)CNC(=O)[C@H](CCC(=O)O)NC(=O)C(C)(C)NC(=O)[C@@H](N)Cc1ccc(O)cc1)[C@@H](C)O)C(=O)N[C@@H](CO)C(=O)N[C@@H](CC(=O)O)C(=O)N[C@@H](Cc1ccc(O)cc1)C(=O)N[C@@H](CO)C(=O)N[C@H](C(=O)N[C@@](C)(CC(C)C)C(=O)N[C@@H](CC(C)C)C(=O)N[C@@H](CC(=O)O)C(=O)N[C@@H](CCCCN)C(=O)N[C@@H](CCCCNC(=O)COCCOCCNC(=O)COCCOCCNC(=O)CC[C@H](NC(=O)CCCCCCCCCCCCCCCCCCC(=O)O)C(=O)O)C(=O)N[C@@H](Cc1c[nH]cn1)C(=O)N[C@@H](CCC(N)=O)C(=O)NC(C)(C)C(=O)N[C@@H](CC(=O)O)C(=O)N[C@@H](Cc1ccccc1)C(=O)N[C@H](C(=O)N[C@@H](CCC(=O)O)C(=O)N[C@@H](Cc1ccc(O)cc1)C(=O)N[C@@H](CC(C)C)C(=O)N[C@@H](CC(C)C)C(=O)N[C@@H](CCC(=O)O)C(=O)NCC(=O)NCC(=O)N1CCC[C@H]1C(=O)N[C@@H](CO)C(=O)N[C@@H](CO)C(=O)NCC(=O)N[C@@H](C)C(=O)N1CCC[C@H]1C(=O)N1CCC[C@H]1C(=O)N1CCC[C@H]1C(=O)N[C@@H](CO)C(N)=O)C(C)C)[C@@H](C)CC
As a reminder, the Ki is the dissociation constant of the complex between target and ligand, obtained from inhibition or displacement. Low values mean tighter binding, high ones weaker binding. With B1, the Ki with human GLP-1 receptor amounted to 144 nM; in the experiment with human glucagon receptor, 114 nM; in experiment [1], 0.0406 nM.

B2: Example 53 (peptide)
peptide: Y[Aib]EGTFISDYSI[αMeL]LDKK([AEEA-AEEA-γGlu-C20 diacid])HQ[Aib]DFVEYLLAGGPSSGAPPPS-NH2
modifications: N-terminus assumed
SMILES: CC[C@H](C)[C@H](NC(=O)[C@H](Cc1ccccc1)NC(=O)[C@@H](NC(=O)CNC(=O)[C@H](CCC(=O)O)NC(=O)C(C)(C)NC(=O)[C@@H](N)Cc1ccc(O)cc1)[C@@H](C)O)C(=O)N[C@@H](CO)C(=O)N[C@@H](CC(=O)O)C(=O)N[C@@H](Cc1ccc(O)cc1)C(=O)N[C@@H](CO)C(=O)N[C@H](C(=O)N[C@@](C)(CC(C)C)C(=O)N[C@@H](CC(C)C)C(=O)N[C@@H](CC(=O)O)C(=O)N[C@@H](CCCCN)C(=O)N[C@@H](CCCCNC(=O)COCCOCCNC(=O)COCCOCCNC(=O)CC[C@H](NC(=O)CCCCCCCCCCCCCCCCCCC(=O)O)C(=O)O)C(=O)N[C@@H](Cc1c[nH]cn1)C(=O)N[C@@H](CCC(N)=O)C(=O)NC(C)(C)C(=O)N[C@@H](CC(=O)O)C(=O)N[C@@H](Cc1ccccc1)C(=O)N[C@H](C(=O)N[C@@H](CCC(=O)O)C(=O)N[C@@H](Cc1ccc(O)cc1)C(=O)N[C@@H](CC(C)C)C(=O)N[C@@H](CC(C)C)C(=O)N[C@@H](C)C(=O)NCC(=O)NCC(=O)N1CCC[C@H]1C(=O)N[C@@H](CO)C(=O)N[C@@H](CO)C(=O)NCC(=O)N[C@@H](C)C(=O)N1CCC[C@H]1C(=O)N1CCC[C@H]1C(=O)N1CCC[C@H]1C(=O)N[C@@H](CO)C(N)=O)C(C)C)[C@@H](C)CC
In the case of B2, the Ki in the experiment with human GLP-1 receptor was 62.9 nM; in the experiment with human glucagon receptor, 152 nM; in experiment [1], 0.0184 nM.

B3: Example 54 (peptide)
peptide: Y[Aib]EGTFISDYSI[αMeL]LDKK([AEEA-AEEA-γGlu-C20 diacid])HQ[Aib]DFVEWLLAGGPSSGAPPPS-NH2
modifications: N-terminus assumed
SMILES: CC[C@H](C)[C@H](NC(=O)[C@H](Cc1ccccc1)NC(=O)[C@@H](NC(=O)CNC(=O)[C@H](CCC(=O)O)NC(=O)C(C)(C)NC(=O)[C@@H](N)Cc1ccc(O)cc1)[C@@H](C)O)C(=O)N[C@@H](CO)C(=O)N[C@@H](CC(=O)O)C(=O)N[C@@H](Cc1ccc(O)cc1)C(=O)N[C@@H](CO)C(=O)N[C@H](C(=O)N[C@@](C)(CC(C)C)C(=O)N[C@@H](CC(C)C)C(=O)N[C@@H](CC(=O)O)C(=O)N[C@@H](CCCCN)C(=O)N[C@@H](CCCCNC(=O)COCCOCCNC(=O)COCCOCCNC(=O)CC[C@H](NC(=O)CCCCCCCCCCCCCCCCCCC(=O)O)C(=O)O)C(=O)N[C@@H](Cc1c[nH]cn1)C(=O)N[C@@H](CCC(N)=O)C(=O)NC(C)(C)C(=O)N[C@@H](CC(=O)O)C(=O)N[C@@H](Cc1ccccc1)C(=O)N[C@H](C(=O)N[C@@H](CCC(=O)O)C(=O)N[C@@H](Cc1c[nH]c2ccccc12)C(=O)N[C@@H](CC(C)C)C(=O)N[C@@H](CC(C)C)C(=O)N[C@@H](C)C(=O)NCC(=O)NCC(=O)N1CCC[C@H]1C(=O)N[C@@H](CO)C(=O)N[C@@H](CO)C(=O)NCC(=O)N[C@@H](C)C(=O)N1CCC[C@H]1C(=O)N1CCC[C@H]1C(=O)N1CCC[C@H]1C(=O)N[C@@H](CO)C(N)=O)C(C)C)[C@@H](C)CC
Take B3: the Ki turned out to be 49.9 nM with human GLP-1 receptor, 386 nM with human glucagon receptor and 0.0326 nM in experiment [1].

B4: Example 51 (peptide)
peptide: Y[Aib]EGT[αMePhe(2-F)]ISDYSI[αMeL]LDKK([AEEA-AEEA-γGlu-C20 diacid])HQ[Aib]DFVE[4Pal]LLAGGPSSGAPPPS-NH2
modifications: N-terminus assumed
SMILES: CC[C@H](C)[C@H](NC(=O)[C@H](CO)NC(=O)[C@H](Cc1ccc(O)cc1)NC(=O)[C@H](CC(=O)O)NC(=O)[C@H](CO)NC(=O)[C@@H](NC(=O)[C@](C)(Cc1ccccc1F)NC(=O)[C@@H](NC(=O)CNC(=O)[C@H](CCC(=O)O)NC(=O)C(C)(C)NC(=O)[C@@H](N)Cc1ccc(O)cc1)[C@@H](C)O)[C@@H](C)CC)C(=O)N[C@@](C)(CC(C)C)C(=O)N[C@@H](CC(C)C)C(=O)N[C@@H](CC(=O)O)C(=O)N[C@@H](CCCCN)C(=O)N[C@@H](CCCCNC(=O)COCCOCCNC(=O)COCCOCCNC(=O)CC[C@H](NC(=O)CCCCCCCCCCCCCCCCCCC(=O)O)C(=O)O)C(=O)N[C@@H](Cc1c[nH]cn1)C(=O)N[C@@H](CCC(N)=O)C(=O)NC(C)(C)C(=O)N[C@@H](CC(=O)O)C(=O)N[C@@H](Cc1ccccc1)C(=O)N[C@H](C(=O)N[C@@H](CCC(=O)O)C(=O)N[C@@H](Cc1ccncc1)C(=O)N[C@@H](CC(C)C)C(=O)N[C@@H](CC(C)C)C(=O)N[C@@H](C)C(=O)NCC(=O)NCC(=O)N1CCC[C@H]1C(=O)N[C@@H](CO)C(=O)N[C@@H](CO)C(=O)NCC(=O)N[C@@H](C)C(=O)N1CCC[C@H]1C(=O)N1CCC[C@H]1C(=O)N1CCC[C@H]1C(=O)N[C@@H](CO)C(N)=O)C(C)C
As for B4, the Ki was determined as 54.1 nM in the experiment with human GLP-1 receptor, 26.7 nM with human glucagon receptor and 0.0386 nM in experiment [1].

The values above are taken from patent US20210032299A1 (Eli Lilly, published 2021).
